Here are results for three substances from US6465220.

For data set [1], the system named is GalNAc4TAP24 glycopeptide.
In data set [2] the test system is EA2 peptide.
The subject of data set [3] is Muc1a′ peptide.
Data set [4] deals with Muc1b′ peptide.
The subject of data set [5] is Muc2 peptide.
For data set [6], the system named is Muc7 peptide.
For data set [7], the system named is PSGL-1b peptide.
The test system of data set [8] is TAP24 peptide.
The subject of data set [9] is PSGL-1a peptide.
In data set [10] the test system is hCG-β peptide.
Sequence of hCG-β peptide (chain, as listed by the source): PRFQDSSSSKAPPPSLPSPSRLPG

Sequence of soluble human GalNAc-T4 (pAcGP67-GalNAc-T4506Vsol), amino acid residues 32-578 (chain, as listed by the source): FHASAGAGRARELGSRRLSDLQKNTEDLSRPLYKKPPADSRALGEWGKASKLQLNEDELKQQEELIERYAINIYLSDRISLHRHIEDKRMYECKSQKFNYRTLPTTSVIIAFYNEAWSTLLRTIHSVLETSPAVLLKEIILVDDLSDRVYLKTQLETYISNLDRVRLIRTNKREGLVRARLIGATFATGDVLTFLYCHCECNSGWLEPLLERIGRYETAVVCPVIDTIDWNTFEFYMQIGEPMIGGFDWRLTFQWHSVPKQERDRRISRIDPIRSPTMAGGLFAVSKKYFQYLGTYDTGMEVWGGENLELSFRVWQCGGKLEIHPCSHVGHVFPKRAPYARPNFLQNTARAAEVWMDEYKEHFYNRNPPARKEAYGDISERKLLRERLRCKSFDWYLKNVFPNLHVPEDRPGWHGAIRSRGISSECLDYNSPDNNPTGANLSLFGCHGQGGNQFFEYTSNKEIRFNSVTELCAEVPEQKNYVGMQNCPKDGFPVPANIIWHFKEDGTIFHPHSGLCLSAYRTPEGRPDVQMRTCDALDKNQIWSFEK
Sequence of soluble recombinant human GalNAc-T2 (pAcGP67-GalNAc-T2-sol) (chain, as listed by the source): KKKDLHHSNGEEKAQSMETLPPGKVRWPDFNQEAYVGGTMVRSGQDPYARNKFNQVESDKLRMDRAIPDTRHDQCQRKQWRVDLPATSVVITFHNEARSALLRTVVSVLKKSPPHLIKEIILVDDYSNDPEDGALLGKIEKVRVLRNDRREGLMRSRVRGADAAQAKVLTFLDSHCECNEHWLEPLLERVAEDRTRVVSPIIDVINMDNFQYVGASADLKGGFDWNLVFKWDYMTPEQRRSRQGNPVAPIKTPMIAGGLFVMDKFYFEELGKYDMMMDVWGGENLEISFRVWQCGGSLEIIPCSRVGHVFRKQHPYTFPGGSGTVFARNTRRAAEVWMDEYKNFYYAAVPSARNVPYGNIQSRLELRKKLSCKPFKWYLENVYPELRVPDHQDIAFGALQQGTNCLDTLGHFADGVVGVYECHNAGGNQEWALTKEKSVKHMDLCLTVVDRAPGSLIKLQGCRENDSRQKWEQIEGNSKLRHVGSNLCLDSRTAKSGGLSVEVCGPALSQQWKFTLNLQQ
Sequence of PSGL-1b peptide (chain, as listed by the source): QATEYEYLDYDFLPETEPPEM
Sequence of full coding human GalNAc-T4 (pVL-GalNAc-T4506Vfull) expressed in Sf9 cells (chain, as listed by the source): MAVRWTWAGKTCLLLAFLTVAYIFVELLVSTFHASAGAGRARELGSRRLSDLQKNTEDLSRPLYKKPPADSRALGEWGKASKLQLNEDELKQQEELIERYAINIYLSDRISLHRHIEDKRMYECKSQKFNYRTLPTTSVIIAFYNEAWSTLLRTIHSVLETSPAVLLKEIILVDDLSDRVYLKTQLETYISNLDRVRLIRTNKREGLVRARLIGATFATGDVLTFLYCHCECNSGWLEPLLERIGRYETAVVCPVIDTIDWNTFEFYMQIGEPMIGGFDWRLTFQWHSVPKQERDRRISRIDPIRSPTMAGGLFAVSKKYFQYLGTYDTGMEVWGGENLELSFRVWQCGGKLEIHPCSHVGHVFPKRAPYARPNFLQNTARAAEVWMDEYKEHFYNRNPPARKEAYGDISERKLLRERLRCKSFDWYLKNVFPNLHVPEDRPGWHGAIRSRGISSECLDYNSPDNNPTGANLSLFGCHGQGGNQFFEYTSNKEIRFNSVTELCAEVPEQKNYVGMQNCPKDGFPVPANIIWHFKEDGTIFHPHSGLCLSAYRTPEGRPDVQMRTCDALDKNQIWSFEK

For “full coding human GalNAc-T4 (pVL-GalNAc-T4506Vfull) expressed in Sf9 cells”, the “GalNAc incorporation by MALDI-TOF of HPLC-purified product” value in data set [1] is “no incorporation was detected”.
Regarding “soluble human GalNAc-T4 (pAcGP67-GalNAc-T4506Vsol), amino acid residues 32-578”, the GalNAc-transferase activity at 0.06 mM peptide (milliunits/mg) in data set [2] was determined as 15; in [1], 4.4; in data set [5], 9; in data set [6] it was 21; in [7], 1.2; in [8], 0.8. The GalNAc-transferase activity at 0.25 mM peptide (milliunits/mg) in data set [2] was found to be 42; in [1], 7.1; in data set [3] it was 2; in data set [4], 0.7; in data set [5], 29; in [6], 53. In addition, the GalNAc-transferase activity at 0.25 mM peptide (milliunits/mg) came out at 1.4 in [7] and 2.7 in data set [8]. Besides, the Km for acceptor substrate in [2] turned out to be 2190 µM; in data set [1], 90 µM; in [6] it was 480 µM; in data set [7] it was 20 µM. The Vmax in data set [2] worked out at 0.44 nmol/min/µg; in data set [1], 0.007 nmol/min/µg; in [6], 0.25 nmol/min/µg; in [7], 0.003 nmol/min/µg. In addition, the GalNAc-transferase activity at 1 mM peptide (milliunits/mg) in data set [3] amounted to 6.7; in data set [4] it was 0.9.
As to “soluble recombinant human GalNAc-T2 (pAcGP67-GalNAc-T2-sol)”, the GalNAc-transferase activity at 0.06 mM peptide (milliunits/mg) in data set [2] is 152; in [1], 0; in data set [5], 169; in [6] it was 737; in data set [9] it was 0; in data set [7] it was 0.3. The GalNAc-transferase activity at 0.06 mM peptide (milliunits/mg) in data set [8] was 73; in data set [10], 22. The GalNAc-transferase activity at 0.25 mM peptide (milliunits/mg) worked out at 376 in [2]; 0 in data set [1]; 28 in data set [3]; 198 in [4]; 128 in [5]; 396 in data set [6]. In addition, the GalNAc-transferase activity at 0.25 mM peptide (milliunits/mg) in data set [9] came out at 0; in data set [7], 0.3; in data set [8], 222; in [10], 74. Besides, the Km for acceptor substrate is 850 µM in [2], 15 µM in data set [6] and over 2000 µM in data set [7]. Besides, the values for the Vmax in data set [2] and in data set [6] were 1.8 nmol/min/µg and 0.64 nmol/min/µg, respectively. Besides, the results for the GalNAc-transferase activity at 1 mM peptide (milliunits/mg) in data set [3] and in data set [4] were 83 and 582, respectively. Besides, the GalNAc-transferase activity entry in data set [9] and in data set [7] was “exhibited poor activities with both peptide designs” throughout.
